{
  "source": "paper doi:10.1101/2021.08.05.455185",
  "about": "(bioRxiv, 2021)",
  "proteins": {"B1": {"name": "Mycobacterium smegmatis guanosine 5'-monophosphate reductase (Msm GMPR), product of the guaB1 gene (enzyme, UniProt A0QYE8 1-478, looked up)", "chain": "MRFLDGHTPAYDLTYNDVFVVPGRSDVASRFDVDLSTVDGSGTTIPVVVANMTAVAGRRMAETVARRGGIVVLPQDLPITAVSETVDFVKSRDLVVDTPVTLSPEDSVSDANALLHKRAHGAAVVVFEGRPIGLVTEANCAGVDRFARVRDIALSDFVTAPVGTDPREVFDLLEHAPIDVAVMTAPDGTLAGVLTRTGAIRAGIYTPAVDAKGRLRIAAAVGINGDVGAKAQALAEAGADLLVIDTAHGHQAKMLDAIKAVASLDLGLPLVAGNVVSAEGTRDLIEAGASIVKVGVGPGAMCTTRMMTGVGRPQFSAVVECAAAARQLGGHVWADGGVRHPRDVALALAAGASNVMIGSWFAGTYESPGDLLFDRDDRPYKESYGMASKRAVAARTAGDSSFDRARKGLFEEGISTSRMSLDPARGGVEDLLDHITSGVRSTCTYVGAANLPELHEKVVLGVQSAAGFAEGHPLPAGW"}},
  "key": {"SEC [1]": {"target": "the molecule itself", "test": "SEC"}, "SEC [2]": {"target": "the molecule itself", "test": "SEC", "remark": "listed apart in the source"}},
  "note": "Where two headings read alike, the source gives them in different places.",
  "data": [
    {"protein": "B1", "values": [
      {"measurement": "stoichiometry N", "setting": "SEC [1]", "result": 8},
      {"measurement": "stoichiometry N", "setting": "SEC [2]", "result": 4}
    ]}
  ]
}
